Measured values as given in PMC10141624.

Target: HA-T-AGM protein (recombinant soluble trimeric hemagglutinin of Influenza A/Guangdong-Maonan/SWL1536/2019 (H1N1) pdm09-like virus) (Influenza A/Guangdong-Maonan/SWL1536/2019 (H1N1) | not stated)
Assay: SEC

“HA-T-AGM protein (recombinant soluble trimeric hemagglutinin of Influenza A/Guangdong-Maonan/SWL1536/2019 (H1N1) pdm09-like virus)” was tested, and the stoichiometry N was 3.
